Measured values: the supplement of paper PMC6755084

system: F1*sub RNA substrate (template-directed ligation); experiment: fraction ligated after 30 min (ligated reads / total reads); higher = more ligase activity; sequences stand for … in GAGACCGCAACTGAAAAGTTGT…AGTTCTGCACGTAGAAGCAAAAGGC; settings: 42 °C
In short: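 Ribozyme variants were transcribed with T7 from PCR-amplified oligo-pool templates and gel-purified. Ligated and unligated bands, separated on gel, were reverse transcribed with barcoded primers and sequenced on a MiSeq, with core bases filtered at quality ≥20. Fraction ligated per variant was computed as ligated reads divided by total reads.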

Going from “TATCATTTCGTAAGAACTTTGGATGGGTTGA [3d1146]” to “TATCATTTCGTAAGACACTTGGATGGGTTGA [3d1149]”, the fraction ligated falls from 0.857 to 0.763.

Compared with “TATCATTTCGTAAGACACTTTGATGGGTTGA [3d1150]”, “TATCATTTCGTAAGACACTTTGGAGGGTTGA [3d1152]” is lower in fraction ligated: 0.799 for the first, 0.042 for the second.

Compared with “TATCATTTCGTAAGACACTTTGGATGGGTTA [3d1154]”, “TATCATTTCGTAAGACACTTTGGATGGGTTG [3d1155]” is higher in fraction ligated: 0.313 for the first, 0.769 for the second.

Going from “TATCATTTCGTAAGACACTTTGGATGGGTTGA [2d110]” to “TATCATTTCGTAAGACACTTTGGATGGTTGA [3d1153]”, the fraction ligated falls from 0.807 to 0.101.

Going from “TATCATTTCGTAAGACACTTTGGTGGGTTGA [3d1151]” to “TATCATTTCGTAAGACATTTGGATGGGTTGA [3d1148]”, the fraction ligated rises from 0.1 to 0.801.

Going from “TATCATTTCGTAAGACCTTTGGATGGGTTGA [3d1147]” to “TATCATTTCGTAAGCACTTTGGATGGGTTGA [3d1145]”, the fraction ligated rises from 0.775 to 0.786.

First: TATCATTTCGTAGACACTTTGGATGGGTTGA [3d1143]
Second: TATCATTTCTAAGACACTTTGGATGGGTTGA [3d1141]
The fraction ligated of the first is higher: 0.802 for the first, 0.786 for the second.

First: TATCATTTGTAAGACACTTTGGATGGGTTGA [3d1140]
Second: TATCCGTCGTAAGACACTTTGGATGGGTTGA [3d949]
The fraction ligated of the first is higher: 0.803 for the first, 0.798 for the second.

TATCCTGCGTAAGACACTTTGGATGGGTTGA [3d951] and TATCCTGTCGAAGACACTTTGGATGGGTTGA [3d954] are the same in fraction ligated: 0.786 for the first, 0.786 for the second.

Compared with TATCCTGTCGTAAACACTTTGGATGGGTTGA [3d956], TATCCTGTCGTAAGAACTTTGGATGGGTTGA [3d958] is higher in fraction ligated: 0.796 for the first, 0.803 for the second.

First: TATCCTGTCGTAAGACACTTGGATGGGTTGA [3d961]
Second: TATCCTGTCGTAAGACACTTTGATGGGTTGA [3d962]
The fraction ligated of the first is higher: 0.794 for the first, 0.754 for the second.

Compared with TATCCTGTCGTAAGACACTTTGGAGGGTTGA [3d964], TATCCTGTCGTAAGACACTTTGGATGGGTTA [3d966] is higher in fraction ligated: 0.0143 for the first, 0.436 for the second.

Compared with TATCCTGTCGTAAGACACTTTGGATGGGTTG [3d967], TATCCTGTCGTAAGACACTTTGGATGGGTTGA [2d90] is higher in fraction ligated: 0.76 for the first, 0.788 for the second.

Going from TATCCTGTCGTAAGACACTTTGGATGGTTGA [3d965] to TATCCTGTCGTAAGACACTTTGGTGGGTTGA [3d963], the fraction ligated rises from 0.038 to 0.274.

Compared with TATCCTGTCGTAAGACATTTGGATGGGTTGA [3d960], TATCCTGTCGTAAGACCTTTGGATGGGTTGA [3d959] is higher in fraction ligated: 0.766 for the first, 0.772 for the second.

Compared with TATCCTGTCGTAAGCACTTTGGATGGGTTGA [3d957], TATCCTGTCGTAGACACTTTGGATGGGTTGA [3d955] is lower in fraction ligated: 0.783 for the first, 0.779 for the second.

Going from TATCCTGTCTAAGACACTTTGGATGGGTTGA [3d953] to TATCCTGTGTAAGACACTTTGGATGGGTTGA [3d952], the fraction ligated rises from 0.785 to 0.791.

First: TATCCTTCGTAAGACACTTTGGATGGGTTGA [3d950]
Second: TATCCTTGCGAAGACACTTTGGATGGGTTGA [3d986]
The fraction ligated of the first is lower: 0.798 for the first, 0.806 for the second.

First: TATCCTTGCGTAAACACTTTGGATGGGTTGA [3d988]
Second: TATCCTTGCGTAAGAACTTTGGATGGGTTGA [3d990]
The fraction ligated of the first is lower: 0.807 for the first, 0.832 for the second.

Going from TATCCTTGCGTAAGACACTTGGATGGGTTGA [3d993] to TATCCTTGCGTAAGACACTTTGATGGGTTGA [3d994], the fraction ligated rises from 0.75 to 0.815.

Going from TATCCTTGCGTAAGACACTTTGGAGGGTTGA [3d996] to TATCCTTGCGTAAGACACTTTGGATGGGTTA [3d998], the fraction ligated rises from 0.0215 to 0.403.

Going from TATCCTTGCGTAAGACACTTTGGATGGGTTG [3d999] to TATCCTTGCGTAAGACACTTTGGATGGGTTGA [2d92], the fraction ligated rises from 0.791 to 0.803.

Compared with TATCCTTGCGTAAGACACTTTGGATGGTTGA [3d997], TATCCTTGCGTAAGACACTTTGGTGGGTTGA [3d995] is higher in fraction ligated: 0.0475 for the first, 0.131 for the second.

TATCCTTGCGTAAGACATTTGGATGGGTTGA [3d992] and TATCCTTGCGTAAGACCTTTGGATGGGTTGA [3d991] are the same in fraction ligated: 0.792 for the first, 0.792 for the second.

Compared with TATCCTTGCGTAAGCACTTTGGATGGGTTGA [3d989], TATCCTTGCGTAGACACTTTGGATGGGTTGA [3d987] is higher in fraction ligated: 0.775 for the first, 0.799 for the second.

Going from TATCCTTGCTAAGACACTTTGGATGGGTTGA [3d985] to TATCCTTGGTAAGACACTTTGGATGGGTTGA [3d984], the fraction ligated rises from 0.764 to 0.796.

Going from “TATCCTTGTCAAGACACTTTGGATGGGTTGA [3d1015]” to “TATCCTTGTCGAAACACTTTGGATGGGTTGA [3d1030]”, the fraction ligated rises from 0.791 to 0.81.

Going from “TATCCTTGTCGAAGAACTTTGGATGGGTTGA [3d1032]” to “TATCCTTGTCGAAGACACTTGGATGGGTTGA [3d1035]”, the fraction ligated rises from 0.772 to 0.775.

First: TATCCTTGTCGAAGACACTTTGATGGGTTGA [3d1036]
Second: TATCCTTGTCGAAGACACTTTGGAGGGTTGA [3d1038]
The fraction ligated of the first is higher: 0.781 for the first, 0.016 for the second.

First: TATCCTTGTCGAAGACACTTTGGATGGGTTA [3d1040]
Second: TATCCTTGTCGAAGACACTTTGGATGGGTTG [3d1041]
The fraction ligated of the first is lower: 0.404 for the first, 0.783 for the second.

Going from TATCCTTGTCGAAGACACTTTGGATGGGTTGA [2d95] to “TATCCTTGTCGAAGACACTTTGGATGGTTGA [3d1039]”, the fraction ligated falls from 0.806 to 0.0395.

Going from “TATCCTTGTCGAAGACACTTTGGTGGGTTGA [3d1037]” to “TATCCTTGTCGAAGACATTTGGATGGGTTGA [3d1034]”, the fraction ligated rises from 0.181 to 0.79.

Compared with “TATCCTTGTCGAAGACCTTTGGATGGGTTGA [3d1033]”, “TATCCTTGTCGAAGCACTTTGGATGGGTTGA [3d1031]” is higher in fraction ligated: 0.747 for the first, 0.775 for the second.

Compared with “TATCCTTGTCGAGACACTTTGGATGGGTTGA [3d1029]”, “TATCCTTGTCGTAAAACTTTGGATGGGTTGA [3d1055]” is lower in fraction ligated: 0.793 for the first, 0.792 for the second.

Going from “TATCCTTGTCGTAAACACTTGGATGGGTTGA [3d1058]” to “TATCCTTGTCGTAAACACTTTGATGGGTTGA [3d1059]”, the fraction ligated rises from 0.721 to 0.758.

Going from “TATCCTTGTCGTAAACACTTTGGAGGGTTGA [3d1061]” to “TATCCTTGTCGTAAACACTTTGGATGGGTTA [3d1063]”, the fraction ligated rises from 0.0122 to 0.416.

Going from “TATCCTTGTCGTAAACACTTTGGATGGGTTG [3d1064]” to “TATCCTTGTCGTAAACACTTTGGATGGTTGA [3d1062]”, the fraction ligated falls from 0.805 to 0.0319.

Going from “TATCCTTGTCGTAAACACTTTGGTGGGTTGA [3d1060]” to “TATCCTTGTCGTAAACATTTGGATGGGTTGA [3d1057]”, the fraction ligated rises from 0.0666 to 0.771.

First: TATCCTTGTCGTAAACCTTTGGATGGGTTGA [3d1056]
Second: TATCCTTGTCGTAACACTTTGGATGGGTTGA [3d1043]
The fraction ligated of the first is lower: 0.766 for the first, 0.81 for the second.

Going from “TATCCTTGTCGTAAGAACTTGGATGGGTTGA [3d1076]” to “TATCCTTGTCGTAAGAACTTTGATGGGTTGA [3d1077]”, the fraction ligated rises from 0.591 to 0.8.

First: TATCCTTGTCGTAAGAACTTTGGAGGGTTGA [3d1079]
Second: TATCCTTGTCGTAAGAACTTTGGATGGGTTA [3d1081]
The fraction ligated of the first is lower: 0.00912 for the first, 0.351 for the second.

Compared with “TATCCTTGTCGTAAGAACTTTGGATGGGTTG [3d1082]”, “TATCCTTGTCGTAAGAACTTTGGATGGTTGA [3d1080]” is lower in fraction ligated: 0.779 for the first, 0.0325 for the second.

Compared with “TATCCTTGTCGTAAGAACTTTGGTGGGTTGA [3d1078]”, “TATCCTTGTCGTAAGAATTTGGATGGGTTGA [3d1075]” is higher in fraction ligated: 0.0718 for the first, 0.79 for the second.

Going from “TATCCTTGTCGTAAGACACTGGATGGGTTGA [3d1097]” to “TATCCTTGTCGTAAGACACTTGATGGGTTGA [3d1098]”, the fraction ligated falls from 0.756 to 0.745.

First: TATCCTTGTCGTAAGACACTTGGAGGGTTGA [3d1100]
Second: TATCCTTGTCGTAAGACACTTGGATGGGTTA [3d1102]
The fraction ligated of the first is lower: 0.00692 for the first, 0.402 for the second.

Compared with “TATCCTTGTCGTAAGACACTTGGATGGGTTG [3d1103]”, “TATCCTTGTCGTAAGACACTTGGATGGTTGA [3d1101]” is lower in fraction ligated: 0.742 for the first, 0.0445 for the second.

Going from “TATCCTTGTCGTAAGACACTTGGTGGGTTGA [3d1099]” to “TATCCTTGTCGTAAGACACTTTATGGGTTGA [3d1104]”, the fraction ligated falls from 0.265 to 0.0278.

Going from “TATCCTTGTCGTAAGACACTTTGAGGGTTGA [3d1106]” to “TATCCTTGTCGTAAGACACTTTGATGGGTTA [3d1108]”, the fraction ligated rises from 0.0265 to 0.644.

Going from “TATCCTTGTCGTAAGACACTTTGATGGGTTG [3d1109]” to “TATCCTTGTCGTAAGACACTTTGATGGTTGA [3d1107]”, the fraction ligated falls from 0.749 to 0.054.

Going from “TATCCTTGTCGTAAGACACTTTGGAGGGTTA [3d1115]” to “TATCCTTGTCGTAAGACACTTTGGAGGGTTG [3d1116]”, the fraction ligated falls from 0.00568 to 0.00286.

Going from “TATCCTTGTCGTAAGACACTTTGGAGGTTGA [3d1114]” to “TATCCTTGTCGTAAGACACTTTGGATGGGTT [3d1119]”, the fraction ligated rises from 0.00283 to 0.0366.

First: TATCCTTGTCGTAAGACACTTTGGATGGGTTA [2d107]
Second: TATCCTTGTCGTAAGACACTTTGGATGGGTTG [2d108]
The fraction ligated of the first is lower: 0.401 for the first, 0.781 for the second.

First: TATCCTTGTCGTAAGACACTTTGGATGGGTTGA [1d5]
Second: TATCCTTGTCGTAAGACACTTTGGATGGTTA [3d1117]
The fraction ligated of the first is higher: 0.789 for the first, 0.0143 for the second.

Compared with “TATCCTTGTCGTAAGACACTTTGGATGGTTG [3d1118]”, “TATCCTTGTCGTAAGACACTTTGGATGGTTGA [2d106]” is higher in fraction ligated: 0.0169 for the first, 0.0489 for the second.

Compared with “TATCCTTGTCGTAAGACACTTTGGGGGTTGA [3d1110]”, “TATCCTTGTCGTAAGACACTTTGGTGGGTTA [3d1112]” is higher in fraction ligated: 0.0067 for the first, 0.0152 for the second.

First: TATCCTTGTCGTAAGACACTTTGGTGGGTTG [3d1113]
Second: TATCCTTGTCGTAAGACACTTTGGTGGTTGA [3d1111]
The fraction ligated of the first is higher: 0.0948 for the first, 0.0166 for the second.
